The series in a line: protein stability index of a GFP-peptide fusion (GPS, HEK-293T) (PSI 1-6); higher = more stable.
Where [1] appears, read: treatment: DMSO, c terminus: a fixed tail appended.
The mark [2] stands for this setting: treatment: MLN4924 1 uM, 8 h, c terminus: a fixed tail appended.

± gives the standard deviation.
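Further: 24-mer peptide tiles fused after GFP, lentivirally expressed, FACS-sorted into six equal bins by GFP/DsRed ratio, decoded by Illumina sequencing, PSI is the read-weighted mean bin number.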

For the sequence FYNTEDIKDWEDRFYLLLFSFLGL [PTGFR], the protein stability index by setting is: under setting [1], 2.41 ± 0.7; under setting [2], 2.1 ± 0.47.
Take QDLIEDLKLARKAYHDPMLKLSIM [NET1]: the protein stability index is 2.33 ± 0.38 under setting [1] and 2.46 ± 0.26 under setting [2].
On to PCLGHTFNAGIQQAFQLPKLGALL [ZBED1], for which the protein stability index under setting [1] stood at 2.36 ± 0.37 and the protein stability index under setting [2] worked out at 2.02 ± 0.24.
With TTQDLFAINRDTAFPGASHESSGN [RHOBTB3], the protein stability index under setting [1] amounted to 4.57 ± 0.51 and the protein stability index under setting [2] came to 4.87 ± 0.15.
The corresponding values for PRELFPPLFMAAFDGRHSQTLKAM [PRAME] are 2.65 ± 0.41 and 2.69 ± 0.27.
The corresponding values for APPAKLACPVCSKMVPRYDLNRHL [FAN1] are 2.39 ± 0.21 and 2.95 ± 0.55.
Take VHEVLQAVDAGDPAVEACENRRKV [TCF25]: the protein stability index stood at 5.3 ± 0.22 under setting [1] and 5.35 ± 0.097 under setting [2].
The corresponding values for KHYRFTHAEIIAWIRICRPGSIIG [CDC14A] are 2.55 ± 0.15 and 2.83 ± 0.67.
The corresponding values for SKPWHWPINYQGLRFSGVNDTDFR [POMT2] are 2.37 ± 0.17 and 2.52 ± 0.26.
The like results for SCSSEDNLSLVCLPRSEDDDCDDD [DRICH1] were, in that order, 5.59 ± 0.17 and 5.66 ± 0.15.
Turning to ITRVLYEVFIEWGISAKVFGATTN [ZBED1], the protein stability index is, setting by setting: under setting [1], 3.15 ± 0.88; under setting [2], 3.04 ± 0.2.
FVVLAFLTGVLCSYPNPNEDKCPG [TMEM192]: the protein stability index is, setting by setting: under setting [1], 2.92 ± 0.52; under setting [2], 3.22 ± 0.46.
In the case of LKGGLQEVAEQLELERIGPQHQAG [CNOT7], the protein stability index is, setting by setting: under setting [1], 4.67 ± 0.14; under setting [2], 4.94 ± 0.22.
The like results for ALGKLLPRETLCTELVLSDCMLSE [LRRC45] were, in that order, 2.22 ± 0.32 and 2.67 ± 0.45.
The corresponding values for VSYRGAWWYRNCHYANLNGLYGST [TNXB] are 2.49 ± 0.46 and 2.26 ± 0.86.
The like results for TTPIEEVKGLFKSENCPKVISCEF [LARP4] were, in that order, 2.9 ± 0.2 and 2.82 ± 0.36.
QIEEVFISEEIQMSTKESDFLCLL [MIA2]: the protein stability index came to 2.51 ± 0.42 under setting [1] and 2.49 ± 0.37 under setting [2].
Take VCRDSVSRKGELTPLPETGYWRVR [TRIM39]: the protein stability index was 2.55 ± 0.1 under setting [1] and 2.71 ± 0.57 under setting [2].
Turning to QAIQMRLVDVACKHLTDTSHGVRN [INTS4], the protein stability index runs as follows: under setting [1], 2.52 ± 0.4; under setting [2], 2.52 ± 0.23.
In the case of DLKQALPCVAESPTVHVEVHQRGS [TRIP13], the protein stability index is, setting by setting: under setting [1], 4.51 ± 0.31; under setting [2], 4.57 ± 0.11.
For LHTAREFSEEDEEETTSQDWGTPR [RTN2], the protein stability index is, setting by setting: under setting [1], 5.4 ± 0.27; under setting [2], 5.46 ± 0.23.
The corresponding values for ECHIVVLTDDDVVDWDEEYPPQMG [BTBD10] are 3.34 ± 0.29 and 3.73 ± 0.42.
The corresponding values for TRLAFELFAEEQAEGPNRLLYKDG [LPCAT4] are 3.85 ± 0.19 and 4.02 ± 0.2.
Sequence EIIKVTEQLIEAINNGDFEAYTKI [CAMK2D] had a protein stability index under setting [1] of 2.47 ± 0.12 and a protein stability index under setting [2] of 2.63 ± 0.29.
Consider LSDVQNPAISITENVLHFKAQGHG [HACD3], for which the protein stability index came to 4.13 ± 0.19 under setting [1] and 4.28 ± 0.15 under setting [2].
As to SLFARAMQVLVTAISPGRFPEALD [ANKRD9], the protein stability index came to 3.04 ± 0.31 under setting [1] and 2.8 ± 0.54 under setting [2].
The like results for SEQLVNFTGKAEMGGPFSYVYFFC [TMEM106C] were, in that order, 2.69 ± 0.48 and 2.64 ± 0.45.
ISYSSMLGAVAGLALGPILRLYKH [MFSD9]: the protein stability index reads like this: under setting [1], 2.58 ± 0.5; under setting [2], 2.13 ± 0.25.
The corresponding values for YPPPPPALPSSAPSGPPPPPPSVL [WASL] are 4.54 ± 0.2 and 4.5 ± 0.16.
PAAPGAGGGSGSAPGPSRIADYLL [TRIB1]: the protein stability index under setting [1] was 4.02 ± 0.68 and the protein stability index under setting [2] stood at 4.14 ± 0.21.
LGPELIKESNANPIFMRKDTKMSF [DPCD]: the protein stability index runs as follows: under setting [1], 3.46 ± 0.084; under setting [2], 3.43 ± 0.2.
On to RRSMKRKALFTCPFNGDCRITKDN [VDR], for which the protein stability index is 3.29 ± 0.45 under setting [1] and 3.48 ± 0.3 under setting [2].
The corresponding values for PPPAYEPPAPAPLPPPSAPSLQPS [SCAMP3] are 5.04 ± 0.18 and 4.97 ± 0.11.
The corresponding values for CKKAFREGSRKSSRVKGSAPEIDP [KMT2E] are 4.46 ± 0.15 and 4.48 ± 0.15.
The like results for YPITLYLEKEREKEISDDEAEEEK [HSP90AB1] were, in that order, 5.01 ± 0.39 and 5.3 ± 0.083.
On to MTGAYNNFFRMFDRNTKRDVTLEA [PPP2R2C], for which the protein stability index reads like this: under setting [1], 3.03 ± 0.45; under setting [2], 3.14 ± 0.33.
The corresponding values for IEKEEQEKKRKEEEERRRREEEER [ACBD3] are 5.48 ± 0.21 and 5.66 ± 0.097.
The like results for ASLLPSARLASPLPREEEIVFPEK [ADAMTS4] were, in that order, 4.7 ± 0.63 and 4.97 ± 0.46.
The corresponding values for LLVQDATPVSNSLLPEKAFSDIPS [GFOD1] are 3.35 ± 0.24 and 3.37 ± 0.22.
Take KAASLARNLAKRRRTYLGGAAGRS [RSPH3]: the protein stability index stood at 3.09 ± 0.34 under setting [1] and 3.56 ± 0.45 under setting [2].
The like results for AIAMYFLPPSPRFLVMKGQEGAAS [SLC2A12] were, in that order, 2.17 ± 0.53 and 1.97 ± 0.31.
The corresponding values for AAPFPSPAPASPAISVVGVSAGGH [TFE3] are 4.24 ± 0.35 and 4.16 ± 0.38.
Consider SCIMENGHQPGTGPGDGPPEIAQN [SMTNL2], for which the protein stability index was 4.95 ± 0.28 under setting [1] and 4.99 ± 0.074 under setting [2].
The corresponding values for PPWGLGPGAGDPAPGIGPPEPWPG [MYCL] are 3.63 ± 0.39 and 3.92 ± 0.058.
In the case of GRGLYVYSLQMKRVIACQKTAHDS [WDR41], the protein stability index reads like this: under setting [1], 2.08 ± 0.42; under setting [2], 2.15 ± 0.34.
For AGLVHVKQCIVAHPVNPPYYIPLV [CRYL1], the protein stability index was 2.46 ± 0.33 under setting [1] and 2.36 ± 0.54 under setting [2].
As to PPQPCATACKPVIRVPSVPPVPCV [KRT36], the protein stability index by setting is: under setting [1], 2.9 ± 0.28; under setting [2], 2.91 ± 0.16.
The like results for SRGGTRGWLPSHEGHLDDGGYTPD [RBMY1A1] were, in that order, 4.73 ± 0.29 and 4.75 ± 0.24.
As for GFKRDYYLIRVDGKGSIKELFPTG [VPS39], the protein stability index is 2.06 ± 0.29 under setting [1] and 2.25 ± 0.36 under setting [2].
The corresponding values for VMRTKSSEKAANDDHSVRVAREDV [CPXM2] are 5.08 ± 0.54 and 5.16 ± 0.35.
The like results for GLPGSGKTTLARQLQHDFPRALIF [N4BP2L1] were, in that order, 2.25 ± 0.18 and 2.56 ± 0.23.
Take HGSPQLGEGMFQHQTSVAHQPVVR [TBX5]: the protein stability index by setting is: under setting [1], 4.19 ± 0.28; under setting [2], 4.13 ± 0.17.
The corresponding values for SIKMGKRNGLHLPEQVQNEIKSMK [NLN] are 4.02 ± 0.17 and 3.87 ± 0.55.
LETRFKIQQLLEPQQYMAFLPHHI [FBXO34]: the protein stability index is, setting by setting: under setting [1], 2.36 ± 0.49; under setting [2], 2.27 ± 0.33.
Sequence RKRKKATEAIDSLRKSKRLRNRK [FBXO28] came in with a protein stability index (treatment: DMSO, c terminus: native) of 4.97 ± 0.1 and a protein stability index (treatment: MLN4924 1 uM, 8 h, c terminus: native) of 5.19 ± 0.12.
As to VFQHHQYLSPLERKRLAREMQLSE [VENTX], the protein stability index was 2.81 ± 0.26 under setting [1] and 3.08 ± 0.37 under setting [2].
Take EVRAKFKFSLLNAKREETKAMESQ [SPOPL]: the protein stability index runs as follows: under setting [1], 4.06 ± 0.29; under setting [2], 3.97 ± 0.33.
The like results for AVLGLYLLVFLILVGIFILAVSRP [SCARA5] were, in that order, 3.3 ± 0.071 and 2.58 ± 0.63.
Turning to LALVTLLSFATRFHRLDEPPHICW [POMT2], the protein stability index runs as follows: under setting [1], 3.25 ± 0.61; under setting [2], 3.19 ± 0.22.
The corresponding values for LWNGDKYAATTTPFTPLHIKVKPK [TRIM39] are 2.99 ± 0.27 and 3.28 ± 0.38.
The corresponding values for MMYSAELWRYRTITFSGRPSRVHA [FBXO39] are 2.23 ± 0.091 and 2.46 ± 0.2.
In the case of SNKVQDSAPVETPRGKPPLNTRSQ [HMOX1], the protein stability index runs as follows: under setting [1], 5.21 ± 0.38; under setting [2], 5.26 ± 0.27.
The corresponding values for IQLFEELQELLTHDTKDQSPSRAP [HMOX1] are 3.3 ± 0.29 and 3.61 ± 0.45.
ADTGRIHRFVEKPQVFVSNKINAG [GMPPB]: the protein stability index is, setting by setting: under setting [1], 3.46 ± 0.32; under setting [2], 3.84 ± 0.18.
For DLDLIQSTPFKPLALKTPPRVLTL [MFF], the protein stability index under setting [1] was 2.31 ± 0.3 and the protein stability index under setting [2] was 2.36 ± 0.34.
The corresponding values for VKKYKSMKLEKEEFVTLKAIALAN [ESRRG] are 2.46 ± 0.32 and 2.66 ± 0.2.
The like results for ALGIYGAPYAAAAAAQSYPGYLPY [IRX6] were, in that order, 2.23 ± 0.14 and 2.19 ± 0.27.
The like results for ANTMEHLSLLDNNIPGNSTLITAV [FBXO33] were, in that order, 3.16 ± 0.17 and 3.25 ± 0.33.
With IMAFFLCLGLALGAVFSFLFRAIV [SLC29A1], the protein stability index came to 1.94 ± 0.14 under setting [1] and 2.19 ± 0.21 under setting [2].
The like results for GRSGWPAGGAPGSPIPSPPGPGDD [HES6] were, in that order, 5.2 ± 0.21 and 5.25 ± 0.093.
The corresponding values for EEIVFNLTNNVDLDNTKKKMEIYQ [MNAT1] are 4.05 ± 0.39 and 4.02 ± 0.35.
DGRFEKRQGNPSWKKQQKCDECGK [ZNF396]: the protein stability index by setting is: under setting [1], 5.03 ± 0.2; under setting [2], 5.2 ± 0.11.

(Values after the supplement of paper PMC10567573.)
